{"source": "paper PMC5531734", "about": "(Molecular Biology of the Cell, 2017)", "target": "Na/K-ATPase α1-β2 (ATP1A1 with ATP1B2) (human, UniProt P05023-1 1-1023; P14415 1-290)", "assay": "binding to transfected cells, Western blot of washed cell pellets"}
{"binder": "retinoschisin (natural protein) STEDEGEDPWYQKACKCDCQGGPNALWSAGATSLDCIPECPYHKPLGFESGEVTPDQITCSNPEQYVGWYSSWTANKARLNSQGFGCAWLSKFQDSSQWLQIDLKEIKVISGILTQGRCDIDEWMTKYSVQYRTDERLNWIYYKDQTGNNRVFYGNSDRTSTVQNLLRPPIISRFIRLIPLGWHVRIAIRMELLECVSKCA", "values": [{"measurement": "retinoschisin binding relative to α3-β2 (densitometry)", "result": "1.5 fold of binding to α3-β2"}]}
